Laboratory results from IntAct's records for PubMed 18441008.

B1: Peroxisome proliferator-activated receptor gamma coactivator 1-alpha (Homo sapiens), Q9UBK2 (parent)
chain: MAWDMCNQDSESVWSDIECAALVGEDQPLCPDLPELDLSELDVNDLDTDSFLGGLKWCSDQSEIISNQYNNEPSNIFEKIDEENEANLLAVLTETLDSLPVDEDGLPSFDALTDGDVTTDNEASPSSMPDGTPPPQEAEEPSLLKKLLLAPANTQLSYNECSGLSTQNHANHNHRIRTNPAIVKTENSWSNKAKSICQQQKPQRRPCSELLKYLTTNDDPPHTKPTENRNSSRDKCTSKKKSHTQSQSQHLQAKPTTLSLPLTPESPNDPKGSPFENKTIERTLSVELSGTAGLTPPTTPPHKANQDNPFRASPKLKSSCKTVVPPPSKKPRYSESSGTQGNNSTKKGPEQSELYAQLSKSSVLTGGHEERKTKRPSLRLFGDHDYCQSINSKTEILINISQELQDSRQLENKDVSSDWQGQICSSTDSDQCYLRETLEASKQVSPCSTRKQLQDQEIRAELNKHFGHPSQAVFDDEADKTGELRDSDFSNEQFSKLPMFINSGLAMDGLFDDSEDESDKLSYPWDGTQSYSLFNVSPSCSSFNSPCRDSVSPPKSLFSQRPQRMRSRSRSFSRHRSCSRSPYSRSRSRSPGSRSSSRSCYYYESSHYRHRTHRNSPLYVRSRSRSPYSRRPRYDSYEEYQHERLKREEYRREYEKRESERAKQRERQRQKAIEERRVIYVGKIRPDTTRTELRDRFEVFGEIEECTVNLRDDGDSYGFITYRYTCDAFAALENGYTLRRSNETDFELYFCGRKQFFKSNYADLDSNSDDFDPASTKSKYDSLDFDSLLKEAQRSLRR
partner: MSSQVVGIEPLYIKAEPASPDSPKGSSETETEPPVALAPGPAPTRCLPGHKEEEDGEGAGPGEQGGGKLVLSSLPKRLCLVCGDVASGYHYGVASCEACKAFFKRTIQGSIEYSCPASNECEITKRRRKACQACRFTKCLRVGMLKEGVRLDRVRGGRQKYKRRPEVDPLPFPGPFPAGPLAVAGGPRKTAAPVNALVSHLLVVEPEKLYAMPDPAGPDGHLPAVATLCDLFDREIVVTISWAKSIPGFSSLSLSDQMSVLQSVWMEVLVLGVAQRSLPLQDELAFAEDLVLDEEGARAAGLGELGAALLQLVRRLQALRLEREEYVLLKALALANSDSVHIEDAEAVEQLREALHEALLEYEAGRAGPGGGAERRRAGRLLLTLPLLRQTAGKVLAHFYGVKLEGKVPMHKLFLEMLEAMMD
B2: Steroid hormone receptor ERR1 (Homo sapiens), P11474 (parent)
chain: B1 partner
partner: B1 chain

Variants of: B1
Settings: with err1_human ESRRA

Row | effect of a mutation on the interaction | Variant
1 | decreasing interaction strength | K212R

Variants of: B1
Settings: with err1_human ESRRA
Remark: another data set of the same source

Row | Variant | effect of a mutation on the interaction
2 | L210A | disrupting interaction strength
3 | C207E | disrupting interaction strength
4 | C207S | disrupting interaction strength

Second part, the variant after the results:

Row | effect of a mutation on the interaction | Variant
5 | decreasing interaction strength | L211A
6 | disrupting interaction strength | Y213A

Variants of: B1
Settings: with err1_human ESRRA
Remark: another data set of the same source

Row | effect of a mutation on the interaction | Variant
7 | with no effect | P202A;Q203A
8 | disrupting interaction strength | R204A;R205A

Variants of: B1
Settings: with err1_human ESRRA
Remark: another data set of the same source

Row | effect of a mutation on the interaction | Variant
9 | decreasing interaction strength | L144A
10 | disrupting interaction strength | L144A;L210A
11 | decreasing interaction strength | L210A

Variants of: B1
Settings: with err1_human ESRRA
Remark: another data set of the same source

Row | effect of a mutation on the interaction | Variant
12 | disrupting interaction strength | L144A

Variants of: B2
Settings: with prgc1_human PPARGC1A

Row | effect of a mutation on the interaction | Variant
13 | disrupting interaction strength | MSSQVVGIEPLYIKAEPASPDSPKGSSETETEPPVALAPGPAPTRCLPGHKEEEDGEGAGPGEQGGGKLVLSSLPKRLCLVCGDVASGYHYGVASCEACKAFFKRTIQGSIEYSCPASNECEITKRRRKACQACRFTKCLRVGMLKEGVRLDRVRGGRQKYKRRPEVDPLPFPGPFPAGPLAVAGGPRKTAAPVNALVSHLLVVEPEKLYAMPDPAGPDGHLPAVATLCDLFDREIVVTISWAKSIPGFSSLSLSDQVSVLESVWMEVLVLGVAQRSLPLQDELAFAEDLVLDEEGARAAGLGELGAALLQLVRRLQALRLEREEYVLLKALALANSDSVHIEDAEAVEQLREALHEALLEYEAGRAGPGGGAERRRAGRLLLTLPLLRQTAGKVLAHFYGVKLEGKVPMHKLFLEMLEAMMD [M258V;Q262E]
14 | decreasing interaction strength | MSSQVVGIEPLYIKAEPASPDSPKGSSETETEPPVALAPGPAPTRCLPGHKEEEDGEGAGPGEQGGGKLVLSSLPKRLCLVCGDVASGYHYGVASCEACKAFFKRTIQGSIEYSCPASNECEITKRRRKACQACRFTKCLRVGMLKEGVRLDRVRGGRQKYKRRPEVDPLPFPGPFPAGPLAVAGGPRKTAAPVNALVSHLLVVEPEKLYAMPDPAGPDGHLPAVATLCDLFDREIVVTISWAKSIPGFSSLSLSDQMSVLQSVWMEVLVLGVAQRSLPLQDELAFAEDLVLDEEGARAAGLGELGAALLQLVRRLQALRLEREEYVLLKALALANSDSVAIEDAEAVEQLREALHEALLEYEAGRAGPGGGAERRRAGRLLLTLPLLRQTAGKVLAHFYGVKLEGKVPMHKLFLEMLEAMMD [H341A]
15 | decreasing interaction strength | MSSQVVGIEPLYIKAEPASPDSPKGSSETETEPPVALAPGPAPTRCLPGHKEEEDGEGAGPGEQGGGKLVLSSLPKRLCLVCGDVASGYHYGVASCEACKAFFKRTIQGSIEYSCPASNECEITKRRRKACQACRFTKCLRVGMLKEGVRLDRVRGGRQKYKRRPEVDPLPFPGPFPAGPLAVAGGPRKTAAPVNALVSHLLVVEPEKLYAMPDPAGPDGHLPAVATLCDLFDREIVVTISWAKSIPGFSSLSLSDQMSVLQSVWMEVLVLGVAQRSLPLQDELAFAEDLVLDEEGARAAGLGELGAALLQLVRRLQALRLEREEYVLLKALALANSDSVHIEDAEAVEQLREALHEALLEYEAGRAGPGGGAERRRAGRLLLTLPLLRQTAGKVLAHFYGVKLEGKVPMHKLFLEMLEAMMA [D423A]

Variants of: B2
Settings: with prgc1_human PPARGC1A
Remark: another data set of the same source

Row | effect of a mutation on the interaction | Variant
16 | disrupting interaction strength | MSSQVVGIEPLYIKAEPASPDSPKGSSETETEPPVALAPGPAPTRCLPGHKEEEDGEGAGPGEQGGGKLVLSSLPKRLCLVCGDVASGYHYGVASCEACKAFFKRTIQGSIEYSCPASNECEITKRRRKACQACRFTKCLRVGMLKEGVRLDRVRGGRQKYKRRPEVDPLPFPGPFPAGPLAVAGGPRKTAAPVNALVSHLLVVEPEKLYAMPDPAGPDGHLPAVATLCDLFDREIVVTISWAKSIPGFSSLSLSDQMSVLQSVWMEVLVLGVAQRSLPLQDELAFAEDLVLDEEGARAAGLGELGAALLQLVRRLQALRLEREEYVLLKALALANSASVHIEDAEAVEQLREALHEALLEYEAGRAGPGGGAERRRAGRLLLTLPLLRQTAGKVLAHFYGVKLEGKVPMHKLFLEMLEAMMD [D338A]
17 | disrupting interaction strength | MSSQVVGIEPLYIKAEPASPDSPKGSSETETEPPVALAPGPAPTRCLPGHKEEEDGEGAGPGEQGGGKLVLSSLPKRLCLVCGDVASGYHYGVASCEACKAFFKRTIQGSIEYSCPASNECEITKRRRKACQACRFTKCLRVGMLKEGVRLDRVRGGRQKYKRRPEVDPLPFPGPFPAGPLAVAGGPRKTAAPVNALVSHLLVVEPEKLYAMPDPAGPDGHLPAVATLCDLFDREIVVTISWAKSIPGFSSLSLSDQMSVLQSVWMEVLVLGVAQRSLPLQDELAFAEDLVLDEEGARAAGLGELGAALLQLVRALQALRLEREEYVLLKALALANSDSVHIEDAEAVEQLREALHEALLEYEAGRAGPGGGAERRRAGRLLLTLPLLRQTAGKVLAHFYGVKLEGKVPMHKLFLEMLEAMMD [R315A]

Variants of: B2
Settings: with prgc1_human PPARGC1A
Remark: another data set of the same source

Row | effect of a mutation on the interaction | Variant
18 | with no effect | MSSQVVGIEPLYIKAEPASPDSPKGSSETETEPPVALAPGPAPTRCLPGHKEEEDGEGAGPGEQGGGKLVLSSLPKRLCLVCGDVASGYHYGVASCEACKAFFKRTIQGSIEYSCPASNECEITKRRRKACQACRFTKCLRVGMLKEGVRLDRVRGGRQKYKRRPEVDPLPFPGPFPAGPLAVAGGPRKTAAPVNALVSHLLVVEPEKLYAMPDPAGPDGHLPAVATLCDLFDREIVVTISWAKSIPGFSSLSLSDQMSVLQSVWMEVLVLGVAQRSLPLQDELAFAEDLVLDEEGARAAGLGELGAALLQLVRRLQALRLEREEYVLLKALALANSDSVHIEDAEAVEQLREALHEALLEYEAGRAGPGGGAERRRAGRLLLTLPLLRQTAGKVLAHFYGVKLEGKVPMHKLFLEMLEAMMA [D423A]
